This is an account of results in patent US20130122013A1 (Eli Lilly, published 2013).

One may read the Kd as the constant that tells how readily two partners part at equilibrium. Low readings indicate higher affinity, high ones lower affinity. The term koff denotes a measure of how fast the partners let go of each other. The low end stands for slow dissociation, the high end for fast dissociation. By kon is commonly meant the rate constant with which the complex forms.

Experiment [1] addresses T1, human FPN1 C-terminally fused with GFP (human, UniProt Q9NP59 1-571, GFP reporter fused to the C-terminus ("FPN1 is C-terminally fused with GFP"). It is left out because the patent gives no letters for it.).
T1 sequence: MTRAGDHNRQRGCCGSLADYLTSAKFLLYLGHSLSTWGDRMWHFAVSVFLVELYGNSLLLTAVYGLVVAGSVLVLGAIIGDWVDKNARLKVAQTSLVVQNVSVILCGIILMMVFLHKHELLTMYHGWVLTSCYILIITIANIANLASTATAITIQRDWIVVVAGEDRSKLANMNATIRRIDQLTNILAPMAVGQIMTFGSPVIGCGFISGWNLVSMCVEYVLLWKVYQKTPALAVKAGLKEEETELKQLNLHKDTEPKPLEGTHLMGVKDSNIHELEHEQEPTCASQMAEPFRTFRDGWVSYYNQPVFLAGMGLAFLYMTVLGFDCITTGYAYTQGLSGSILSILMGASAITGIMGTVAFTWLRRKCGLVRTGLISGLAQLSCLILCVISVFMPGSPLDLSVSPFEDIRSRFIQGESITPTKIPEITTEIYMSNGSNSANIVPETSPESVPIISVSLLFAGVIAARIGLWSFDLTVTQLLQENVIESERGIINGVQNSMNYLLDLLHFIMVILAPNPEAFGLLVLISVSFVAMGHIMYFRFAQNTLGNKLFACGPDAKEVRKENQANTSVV
Briefly: cell-based or functional assay.

Experiment [2] concerns the target T1, human FPN1 C-terminally fused with GFP. Briefly: cell-based or functional assay. This is another data set of the same source.
For experiment [3] the target is unchanged. The experiment can be described thus: SPR, Biacore T100, 25 C, 1:1 model; FPN1-GFP captured from cell lysate on rabbit anti-GFP antibody, Mab injected. For orientation: Surface plasmon resonance follows binding to a sensor surface in real time, without labels.
Procedure: (§1) The affinities of FPN1 binding Fabs and Mabs may be determined on Biacore T100 and using 1:1 binding model in the Biacore T100 evaluation software (BIAcore® AB, Upsala, Sweden). […] FPN1 is C-terminally fused with GFP. Expression of FPN1-GFP is induced by 1-10 ng/mL doxycycline for 1-24 hours. Induced cells are harvested by scraping off from flasks and then washed with 1×PBS. Cell pellets can be stored at −80° C. before use. About five million induced cells are resuspended in 10 mM phosphate buffer with 0.2% Tween-20 and protease inhibitors, e.g., Complete™ Protease Inhibitor Cocktail Tablet (Roche Diagnostics Corp., Indianapolis, Ind.). Three cycles of freeze/thaw/sonication are used to lyse the cells. The lysate is diluted two-fold with Biacore running buffer and centrifuged to remove debris.
(§2) On Biacore T100, rabbit anti-GFP antibody or goat anti-GFP antibody is immobilized onto flow cell 1 to 4 of a CMS chip at 5000-15000 Rus. FPN1-GFP is captured onto flow cell 2, 3, or 4 from the lysate of induced cells. Flow cell 1 is used as reference. Then all flow cells are injected with different concentrations of antibodies to evaluate the binding and kinetics.
The target of the next experiment is T2, peptide FpnE3a (human).
T2 peptide: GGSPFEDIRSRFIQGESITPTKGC
Briefly: dot blot: peptide spotted on nitrocellulose, probed with Mab 34A9, IR700-labeled goat anti-mouse detection.

A further experiment addresses T3, peptide 060719Z (human).
T3 peptide: GGSPFEDIRSRFIQGC
The experiment is described as above.

The target of another experiment is T4, peptide 0708L4C (human).
T4 peptide: GGEDIRSRFIQGESITGC
The description is as above.

A further experiment has as its target T5, peptide 0708L4D (human).
T5 peptide: GGRSRFIQGESITPTKGC
Described as above.

The target of experiment [4] is T1, human FPN1 C-terminally fused with GFP. Briefly: SPR, Biacore T100, 37 C; KD of Fab 1G9 against KD of Fab 34A9 (Table 4(a)).
Source text: The affinities of FPN1 binding Fabs and Mabs may be determined on Biacore T100 and using 1:1 binding model in the Biacore T100 evaluation software (BIAcore® AB, Upsala, Sweden). Briefly, the T-REx system, a commercially available tetracycline-regulated expression system without viral transactivators (Invitrogen, Carlsbad, Calif.) is used for stable cell line generation in T-Rex HEK 293 cells. All growth conditions are described in the T-REx manual provided by Invitrogen. FPN1 is C-terminally fused with GFP. Expression of FPN1-GFP is induced by 1-10 ng/mL doxycycline for 1-24 hours. Induced cells are harvested by scraping off from flasks and then washed with 1×PBS. Cell pellets can be stored at −80° C. before use. About five million induced cells are resuspended in 10 mM phosphate buffer with 0.2% Tween-20 and protease inhibitors, e.g., Complete™ Protease Inhibitor Cocktail Tablet (Roche Diagnostics Corp., Indianapolis, Ind.). Three cycles of freeze/thaw/sonication are used to lyse the cells. The lysate is diluted two-fold with Biacore running buffer and centrifuged to remove debris.
On Biacore T100, rabbit anti-GFP antibody or goat anti-GFP antibody is immobilized onto flow cell 1 to 4 of a CMS chip at 5000-15000 Rus. FPN1-GFP is captured onto flow cell 2, 3, or 4 from the lysate of induced cells. Flow cell 1 is used as reference. […]
Experiment [5] shares this target. Briefly: SPR, Biacore T100, 37 C, 1:1 model; FPN1-GFP captured from cell lysate on rabbit anti-GFP antibody, Fab injected.
Procedure: as §1, §2
Experiment [6] has the same target. The experiment can be described thus: SPR, Biacore T100, 37 C, 1:1 model; FPN1-GFP captured from cell lysate on goat anti-GFP antibody, Fab injected; n = 4.
Procedure: as §1, §2

Residue numbers refer to the chain shown, from its start.

Procedure for peptide 060719Z: (§3) For each peptide, 3 μl of 1-5 μg/mL peptide is spotted onto a piece of nitrocellulose membrane and air dried. The membrane is blocked with blocking buffer (e.g., PBS containing 1% BSA), then incubated with 3-5 μg/mL FPN1 antibody in blocking buffer at room temperature for an hour. The membrane is washed three times, 5 min each, with 1×PBST (10 mM sodium phosphate, 150 mM NaCl, 0.1% Tween-20, pH 7.4) before it is incubated with IR700-labeled-Goat-anti-Mouse antibody according to manufacturer's protocol (LiCor, Inc; Lincoln, Nebr.). The membrane is washed three times, five minutes each, with 1×PBST, is imaged on Odyssey imaging system and Odyssey software (LiCor, Inc).
Procedure for peptide 0708L4C: as §3
Procedure for peptide 0708L4D: as §3
Procedure for peptide FpnE3a: as §3

B1: Mab 34A9 (antibody, mouse IgG1, kappa, V domains shown)
VH: QVQLKQSGAELVRPGTSVKVSCKASGYAFTNFLIEWLKQRPGQGLEWIGTINPETGGTKYNEKFRGKATLTADKSSSTAYMQLNSLTSDDSAVYFCVREFFDYWGQGTSLTVSS
VL: ETTVTQSPSYLAASPGETITINCRASKSISKYLAWFQEKPGKTNKLLIYAGSTLHSGIPSRFSGSGSGTDFTLTISSLEPEDFAMYYCQQHNEYPYTFGGGTKLELKR
notes: Mouse monoclonal antibody against human FPN1; also called mouse 34A9; mouse Mab 34A9
As to B1, in experiment [1], the “Percent (%) Inhibition of Mature Human Hepcidin-induced Internalization and Degradation, Mab at 7.4 nM” value was 4.8%; the “Percent (%) Inhibition of Mature Human Hepcidin-induced Internalization and Degradation, Mab at 22 nM” value worked out at 14.1%; the “Percent (%) Inhibition of Mature Human Hepcidin-induced Internalization and Degradation, Mab at 67 nM” value came to 23.6%; the “Percent (%) Inhibition of Mature Human Hepcidin-induced Internalization and Degradation, Mab at 200 nM” value came to 30.8%. Besides, in experiment [1], the “Percent (%) Inhibition of Mature Human Hepcidin-induced Internalization and Degradation, Mab at 600 nM” value was found to be 39%. For the same molecule, in experiment [2], the “Relative IC50 of inhibition of hepcidin-25-induced internalization and degradation of FPN1-GFP” value was determined as 58.9 nM; the “Top % Inhibition of hepcidin-25-induced internalization and degradation of FPN1-GFP” value stood at 55.2%. For the same molecule, in experiment [3], the Kd worked out at 1.18 nM, the dissociation rate constant (koff) is 8.16e-05 s⁻¹ and the on-rate (kon) worked out at 69000 M⁻¹ s⁻¹. Moreover, in the experiment with peptide FpnE3a, the binding result is listed as “binds”. For the same molecule, in the experiment with peptide 060719Z, the binding result is “binds”. For the same molecule, the binding result in the experiment with peptide 0708L4C is recorded as “binds”. For the same molecule, the binding result with peptide 0708L4D was “binds”.

B2: Fab 1G9 (Fab, V domains shown)
VH: B1 VH with N31S, E54R
VL: ETTVTQSPSYLAASPGETITINCRASKSISKYLAWFQEKPGKTNKLLIYAGSKLHSGIPSRFSGSGSGTDFTLTISSLEPEDFAMYYCFQHNEYPYTFGGGTKLELK
notes: also called mouse 1G9; mouse Fab 1G9
On to B2, for which the “fold improvement in binding affinity over mouse Fab 34A9” value in experiment [4] is about 5 fold. In experiment [5], the Kd was 7.71 nM, the koff came to 0.000897 s⁻¹ and the kon turned out to be 127000 M⁻¹ s⁻¹. In experiment [6], this molecule had a Kd of 2.9 nM, an off-rate (koff) of 0.000497 s⁻¹ and a kon of 173000 M⁻¹ s⁻¹.
